# According to US20050222387A1, “Smac-peptides as therapeutics against cancer and autoimmune diseases” (Deutsches Krebsforschungzentrum Stiftung Des Oeffentlichen …, priority 2002, published 2005):
# Experiment: Neurotoxicity by compound neurological score in the glioblastoma model
# Format: in vivo, athymic mice
# Details: TRAIL alone, local administration
# Description: Animal studies. 5×10^4 U87MG human glioblastoma cells were stereotactically implanted into the right striatum of athymic mice (CD1 nu/nu, Charles River, Sulzfeld, Germany). At day 7 or at day 7 and day 9, mice were locally treated with Apo2L/TRAIL (2 μg/4 μl buffer) and/or Smac (1 mg/4 μl buffer) or buffer only. Tumor cell volumes were measured at day 21 or 35 after tumor cell implantation as previously described. Neurological symptoms (alertness, behaviour, weight loss, focal neurological deficits) were evaluated daily and a compound score of all categories was formed (++: severe deficits, +: deficits, −: no relevant deficits). Statistical significance was assessed using ANOVA.
substance,measurement,value
"TRAIL: TNF-related apoptosis inducing ligand, death receptor ligand; recombinant human TRAIL (PeproTech)",mice that developed neurological deficits,2 of 6
